From patent US20220289859A1 (GlaxoSmithKline, published 2022)

T1: BCMA (UniProt Q02223 1-54, limits assumed)
T1 construct: also called antigen; CD269
T1 sequence (looked up): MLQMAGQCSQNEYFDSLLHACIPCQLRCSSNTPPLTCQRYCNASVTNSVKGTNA


Legend:
[1] = biological target: Neonatal Fc Receptor (FcRn) (UniProt P55899 24-297; P61769 21-119, limits assumed); experiment: SPR specific binding activity, FcRn on NTA chip; ref std #162397940
Experimental: The FcRn binding concentration of the sample was determined by interpolation of the binding response on a calibration curve. Specific binding activity (%) was calculated by dividing the FcRn binding concentration by the total protein concentration.

[2] = biological target: T1, BCMA; experiment: SPR specific binding activity, protein A capture; ref std #162397940
Experimental: (§1) The specific binding activity (%) was calculated by dividing the BCMA or FcγRIIIa binding concentration by the absorbance at 280 nm concentration.

[3] = biological target: T2, FcγRIIIa (UniProt P08637 17-208, limits assumed); experiment: as above
T2 construct: also called CD16a
Experimental: as §1

[4] = biological target: T1, BCMA; experiment: SPR, protein A capture; H2O2-treated 1 h; ref std #182407660A
Experimental: as §1

[5] = biological target: T1, BCMA; experiment: SPR as in Example 4; glyco-enriched samples of belantamab
Experimental: as §1

Sequence of Neonatal Fc Receptor (FcRn) (P55899 24-297 limits assumed, form in doubt, chain 1 of 2): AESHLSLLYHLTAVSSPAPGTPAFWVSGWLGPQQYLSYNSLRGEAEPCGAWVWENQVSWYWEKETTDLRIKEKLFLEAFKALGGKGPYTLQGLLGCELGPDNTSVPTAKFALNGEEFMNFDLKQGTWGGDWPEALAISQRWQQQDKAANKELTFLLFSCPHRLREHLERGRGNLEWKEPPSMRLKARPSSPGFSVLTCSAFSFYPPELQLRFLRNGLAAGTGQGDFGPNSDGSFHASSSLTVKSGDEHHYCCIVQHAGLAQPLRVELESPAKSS
Sequence of Neonatal Fc Receptor (FcRn) (P61769 21-119 limits assumed, form in doubt, chain 2 of 2): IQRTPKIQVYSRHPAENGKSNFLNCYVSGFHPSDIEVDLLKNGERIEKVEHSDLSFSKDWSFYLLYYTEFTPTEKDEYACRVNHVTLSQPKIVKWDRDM
T2 sequence (P08637 17-208 limits assumed): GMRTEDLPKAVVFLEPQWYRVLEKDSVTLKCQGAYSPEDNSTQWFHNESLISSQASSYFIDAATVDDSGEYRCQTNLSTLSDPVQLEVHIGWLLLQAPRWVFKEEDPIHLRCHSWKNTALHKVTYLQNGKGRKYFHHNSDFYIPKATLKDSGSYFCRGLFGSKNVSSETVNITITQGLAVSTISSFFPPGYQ

Binder | FcRn (%) [1] [%] | BCMA (%) [2] [%] | FcγRIIIa (%) [3] [%] | % Antigen Specific Binding [4] [%] | Specific BCMA binding activity [5] [%]
belantamab mafodotin DL8 species (antibody, human IgG1, kappa, MMAF on LC C214; drug load of eight MMAF; conjugation sites as printed: LC C214, HC 224, LC C214, HC 224, LC C230, HC 233, LC C230 and HC 233) heavy: not shown light: not shown | 93 | 86 | 82 |  | 
belantamab mafodotin DL4b species (antibody, human IgG1, kappa, drug load of four MMAF; conjugation sites as printed: LC C230, HC 233, LC C230 and HC 233) heavy: not shown light: not shown | 99 | 90 | 91 |  | 
belantamab mafodotin DL4a species (antibody, human IgG1, kappa, MMAF on LC C214; drug load of four MMAF; conjugation sites LC C214, HC 224, LC C214 and HC 224) heavy: not shown light: not shown | 102 | 95 | 103 |  | 
belantamab mafodotin (antibody, human IgG1, kappa, MMAF on LC C214 in part of the molecules; MMAF conjugated to interchain cysteine sulfhydryls (sites printed at paragraph 239: HC 224, C230, HC 233); heterogeneous drug load DL0 to DL8, average DAR about 4 (2.1 to 5.7 in the DAR samples of Example 4), Antibody-drug conjugate: belantamab conjugated to MMAF; Tested as lots, as samples of differing average DAR and as forced-degradation samples (oxidised, base, acid, thermal, photo); the sample is named in each row; also called anti-BCMA ADC; ADC) heavy: not shown light: not shown | 101 | 96 | 97 | 99 | 
belantamab deglycosylated with PNGaseF (antibody, human IgG1, kappa, N-linked glycans removed with PNGaseF) heavy: not shown light: not shown |  |  |  |  | 95
belantamab mafodotin DL2 species (antibody, human IgG1, kappa, MMAF on LC C214 of one light chain; drug load of two MMAF per antibody; conjugation sites LC C214 and HC 224 (one embodiment)) heavy: not shown light: not shown | 109 | 99 | 104 |  | 
belantamab mafodotin DL0 species (antibody, human IgG1, kappa, no drug load, antibody without cytotoxic agent) heavy: not shown light: not shown | 108 | 103 | 110 |  | 
belantamab mafodotin DL6 species (antibody, human IgG1, kappa, MMAF on LC C214 of one light chain; drug load of six MMAF; conjugation sites as printed: LC C214, HC 224, LC C230, HC 233, LC C230 and HC 233) heavy: not shown light: not shown | 97 | 89 | 84 |  | 
